Laboratory results reported in patent US20160208003A1 (AFFITECH RESEARCH, published 2016).

T1: human CC chemokine receptor 4 (CCR4) (human, UniProt P51679 1-360)
T1 construct: whole, on cells; Always presented on cells; also called CD194; human CCR4
T1 sequence (looked up): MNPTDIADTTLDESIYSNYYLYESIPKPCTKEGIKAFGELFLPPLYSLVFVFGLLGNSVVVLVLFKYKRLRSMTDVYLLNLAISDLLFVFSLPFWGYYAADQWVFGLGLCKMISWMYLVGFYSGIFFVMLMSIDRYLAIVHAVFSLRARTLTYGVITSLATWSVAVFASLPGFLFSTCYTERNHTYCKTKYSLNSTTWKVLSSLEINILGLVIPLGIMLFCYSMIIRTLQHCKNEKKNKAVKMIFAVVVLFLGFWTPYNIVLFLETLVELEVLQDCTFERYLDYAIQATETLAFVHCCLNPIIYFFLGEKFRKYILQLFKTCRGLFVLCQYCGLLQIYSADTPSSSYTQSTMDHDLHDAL

T2: monkey (Macaca mulatta) CCR4 (monkey (Macaca mulatta), UniProt F7GUA3 1-360)
T2 construct: also called monkey CCR4
T2 sequence: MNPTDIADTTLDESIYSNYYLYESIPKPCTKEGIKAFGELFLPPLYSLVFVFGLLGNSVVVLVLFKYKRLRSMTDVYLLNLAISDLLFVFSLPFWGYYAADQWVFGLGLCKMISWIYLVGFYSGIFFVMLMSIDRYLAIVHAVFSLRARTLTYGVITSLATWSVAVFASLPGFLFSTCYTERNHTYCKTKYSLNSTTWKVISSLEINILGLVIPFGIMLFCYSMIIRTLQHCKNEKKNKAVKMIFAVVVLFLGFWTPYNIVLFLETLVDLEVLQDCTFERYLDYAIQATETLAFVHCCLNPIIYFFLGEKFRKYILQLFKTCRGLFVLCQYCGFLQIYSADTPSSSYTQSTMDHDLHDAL


Assays:
[1] = target: T1, human CC chemokine receptor 4 (CCR4); experiment: flow cytometry, IgG titration on CCRF-CEM cells, anti-human-PE, MFI
[2] = target: T1, human CC chemokine receptor 4 (CCR4); experiment: cell-based or functional assay
[3] = target: T1, human CC chemokine receptor 4 (CCR4); experiment: flow cytometry competition; antibody titrated, competitor biotinylated TARC; cell line not given
Experimental: (§1) The cells were harvested from culture flasks, washed 2 times with PBS (400×g, 5 min, 4° C.) and resuspended in PBS containing 0.2% BSA and 0.09% NaN3. 1×10^5 cells per well were aliquoted into V-shaped 96-well plates (Greiner Bio-One, Frikenhausen, Germany). Cells were centrifuged (400×g, 5 min, 4° C.) and resuspended in 50 μl IgG, single chain or unlabeled ligand (1:10 dilution series starting on 100/500/26, 4 μg/ml) mixed with a fixed concentration of biotinylated ligand (10 or 20 nM, see legend to FIG. 24). The cells were incubated for 2 hours at 4° C. and mixed with a pipette every 45 min. The cells were washed three times with 150 μl PBS with 0.2% BSA and 0.09% NaN3 and stained with 3 μg/ml streptavidin PE (BD Biosciences) for 45 minutes at 4° C. Cells were washed, resuspended in 200 μl PBS with 0.2% BSA and 0.09% NaN3, and transferred to a U-shaped 96 well Costar (Corning, Schiphol-Rijik, The Netherlands) plate for flow cytometry using an FACS Canto II flow cytometer (BD Biosciences, Heidelberg, Germany). […] Apparent binding affinities (KD) were calculated according to the following equation derived from previously described methods (Kipriyanov et al, 1997b; Schodin & Kranz, 1993): […]

[4] = target: T1, human CC chemokine receptor 4 (CCR4); experiment: flow cytometry competition; antibody titrated, competitor biotinylated MDC; cell line not given
Experimental: as §1

[5] = target: T2, monkey (Macaca mulatta) CCR4; experiment: flow cytometry, 10 µg/ml antibody on HEK-293T/17 cells transiently transfected with monkey CCR4, anti-human-IgG-PE
Experimental: For transient transfection, Hek293T/17 cells were seeded as 2×10^6 cells in a T75 (NUNC) flask. 48 h after seeding, the cells were transfected with Fugene (ROCHE). 40 μl Fugene and 16 μg DNA are used per T75. The cells were used for assays 48 h after transfection.
HEK-293T/17 cells, were transiently transfected either with pcDNA3.1 plasmid encoding human CCR4 or with pLNO plasmids (Norderhaug et al, 1997) encoding either mouse (GeneBank CAA62372) or monkey (Macaca mulatta) CCR4 (PubMed access number XP_001098807) using Fugene (Roche) as a transfection reagent. Non-transfected (CCR4 negative) cells served as a negative control. The cells were cultivated further for 48 hours under regular conditions described above. The cells were washed twice with PBS, detached from the culture flasks by incubating with Accutase (PAA laboratories, Linz, Austria) for 3 minutes at room temperature. The cells were then washed 2 times with PBS (400×g, 5 min, 4° C.) and resuspended in PBS containing 0.2% BSA and 0.09% NaN₃. 1×10⁵ cells per well were aliquoted into V-shaped 96-well plates (Griner Bio-One, Frikenhausen, Germany). Cells were centrifuged (400×g, 5 min, 4° C.) and resuspended in 50 μl of 10 μg/ml 9E or 9E10J, in PBS containing 0.2% BSA and 0.09% NaN3. The cells were incubated further at 4° C. for 60 min. The samples were then washed twice by centrifugation and re-suspension in 100 μl FACS buffer. […]

[6] = target: T1, human CC chemokine receptor 4 (CCR4); experiment: flow cytometry, saturation titration of IgG on CCRF-CEM cells; one site-specific binding fit

Row | Binder | EC50 (read off the curve) [1] [nM] | ADCC of CCRF-CEM cells, EC50 (mean, N=5) [2] [mg/L] | IC50 [3] [nM] | IC50 [4] [nM] | binding result [5] | Kd [6] [nM] | ADCC of CCRF-CEM cells, EC50 (mean, N=2) [2] [mg/L]
1 | 9E10J IgG (full length human IgG1, lambda) (antibody, V domains shown, also called IgG 9E10J; unmodified 9E10J) VH: QVQLVQSGAEVKKPGSSVKVSCKASGGTFSSYAISWVRQAPGQGLEWMGGIIPIFGTANYAQKFQGRVTMTRDTSTSTVYMELSSLRSEDTAVYYCARRGGSYFDYWGQGTLVTVSS VL: SYVLTQPPSASGTPGQSVTISCSGSTSNIGSHYVFWYQQLPGTAPRLLIYRNHQRPSGVPDRLSGSKSGTSASLAISGLRSEDEADYYCAVWDDTLSGWVFGGGTKLTVLG | ~0.1 | 0.0247 | 2.5 | 0.85 | binds | 0.13 | –
2 | 9E IgG (full length human IgG1, lambda) (antibody, V domains shown, also called IgG 9E; IgG1 9E) VH: QVQLVQSGAEVKKPGSSVKVSCKASGGTFSNYAISWVRQAPGQGLEWMGGIIPIFGTANYAQKFQGRVTITADESTSTAYMELSSLRSEDTAVYYCARRGGSYFDYWGQGTLVTVSS VL: SYVLTQPPSASGTPGQSVTISCSGSTSNIGSHYVFWYQQLPGTAPRLLIYRNHQRPSGVPDRLSGSKSGTSASLAISGLRSEDEADYYCAVWDDTLSGWVFGGGTKLTVLG | ~0.3 | – | 12.5 | 3.9 | binds | 0.37 | 0.186
